Reference: patent US20160194399A1 (CYTOMX THERAPEUTICS, published 2016)

What was measured:
[1] = molecular target: T1, SP34-binding peptide 15860; assay: flow cytometry on peptide-displaying E. coli, 10 nM SP34-dylight-488 with 100 nM isotype control, normalised to peptide expression (yPet-Mona)
T1 peptide: VYYCGGNESLCGERR

[2] = molecular target: T2, SP34-binding peptide 15865; assay: as above
T2 peptide: MMYCGGNEVLCGPRV

[3] = molecular target: T3, SP34-binding peptide 15003; assay: as above
T3 peptide: GYRWGCEWNCGGITT

[4] = molecular target: T4, SP34-binding peptide 15864; assay: as above
T4 peptide: FMCQQRMWGNEFCHQ

[5] = molecular target: T5, SP34-binding peptide 15286; assay: as above
T5 peptide: GYSGGCEFRCYQLYS

[6] = molecular target: T6, SP34-binding peptide 14995; assay: as above
T6 peptide: YSLWGCEWGCDRGLY

[7] = molecular target: T7, SP34-binding peptide 15263; assay: as above
T7 peptide: WYSGGCEAFCGILSS

[8] = molecular target: T1, SP34-binding peptide 15860; assay: flow cytometry on peptide-displaying E. coli, 1 nM SP34-dylight-488 with 100 nM free human CD3ε as competitor, normalised to peptide expression (yPet-Mona)
[9] = molecular target: T2, SP34-binding peptide 15865; assay: as above
[10] = molecular target: T3, SP34-binding peptide 15003; assay: as above
[11] = molecular target: T4, SP34-binding peptide 15864; assay: as above
[12] = molecular target: T5, SP34-binding peptide 15286; assay: as above
[13] = molecular target: T6, SP34-binding peptide 14995; assay: as above
[14] = molecular target: T7, SP34-binding peptide 15263; assay: as above
[15] = molecular target: T1, SP34-binding peptide 15860; assay: flow cytometry on peptide-displaying E. coli, 0.1 nM SP34-dylight-488 with 100 nM isotype control, normalised to peptide expression (yPet-Mona)
[16] = molecular target: T2, SP34-binding peptide 15865; assay: as above
[17] = molecular target: T3, SP34-binding peptide 15003; assay: as above
[18] = molecular target: T4, SP34-binding peptide 15864; assay: as above
[19] = molecular target: T5, SP34-binding peptide 15286; assay: as above
[20] = molecular target: T6, SP34-binding peptide 14995; assay: as above
[21] = molecular target: T7, SP34-binding peptide 15263; assay: as above
[22] = molecular target: T1, SP34-binding peptide 15860; assay: flow cytometry on peptide-displaying E. coli, 1 nM SP34-dylight-488 with 100 nM isotype control, normalised to peptide expression (yPet-Mona)
[23] = molecular target: T2, SP34-binding peptide 15865; assay: as above
[24] = molecular target: T3, SP34-binding peptide 15003; assay: as above
[25] = molecular target: T4, SP34-binding peptide 15864; assay: as above
[26] = molecular target: T5, SP34-binding peptide 15286; assay: as above
[27] = molecular target: T6, SP34-binding peptide 14995; assay: as above
[28] = molecular target: T7, SP34-binding peptide 15263; assay: as above
[29] = molecular target: T1, SP34-binding peptide 15860; assay: flow cytometry on peptide-displaying E. coli, 100 nM SP34-dylight-488 with 100 nM isotype control, normalised to peptide expression (yPet-Mona)
[30] = molecular target: T2, SP34-binding peptide 15865; assay: as above
[31] = molecular target: T3, SP34-binding peptide 15003; assay: as above
[32] = molecular target: T4, SP34-binding peptide 15864; assay: as above
[33] = molecular target: T5, SP34-binding peptide 15286; assay: as above
[34] = molecular target: T6, SP34-binding peptide 14995; assay: as above
[35] = molecular target: T7, SP34-binding peptide 15263; assay: as above

B1: Anti-CD3ε antibody SP34 (antibody, V domains shown)
VH: EVQLVESGGGLVQPKGSLKLSCAASGFTFNTYAMNWVRQAPGKGLEWVARIRSKYNNYATYYADSVKDRFTISRDDSQSILYLQMNNLKTEDTAMYYCVRHGNFGNSYVSWFAYWGQGTLVTVSA
VL: QAVVTQESALTTSPGETVTLTCRSSTGAVTTSNYANWVQEKPDHLFTGLIGGTNKRAPGVPARFSGSLIGDKAALTITGAQTEDEAIYFCALWYSNLWVFGGGTKLTVL
notes: Bought mouse monoclonal (BD Biosciences Cat# 556610); also called SP34 antibody
expression normalized binding [1]: 1.72
expression normalized binding [2]: 1.08
expression normalized binding [3]: 0.39
expression normalized binding [4]: 0.63
expression normalized binding [5]: 0.66
expression normalized binding [6]: 0.11
expression normalized binding [7]: 0.69
expression normalized binding [8]: 0.51
expression normalized binding [9]: 0.26
expression normalized binding [10]: 0.12
expression normalized binding [11]: 0.3
expression normalized binding [12]: 0.34
expression normalized binding [13]: 0.08
expression normalized binding [14]: 0.34
expression normalized binding [15]: 0.48
expression normalized binding [16]: 0.21
expression normalized binding [17]: 0.11
expression normalized binding [18]: 0.15
expression normalized binding [19]: 0.28
expression normalized binding [20]: 0.08
expression normalized binding [21]: 0.24
expression normalized binding [22]: 0.52
expression normalized binding [23]: 0.79
expression normalized binding [24]: 0.2
expression normalized binding [25]: 0.36
expression normalized binding [26]: 0.42
expression normalized binding [27]: 0.13
expression normalized binding [28]: 0.35
expression normalized binding [29]: 4.55
expression normalized binding [30]: 2.24
expression normalized binding [31]: 0.69
expression normalized binding [32]: 1.88
expression normalized binding [33]: 1.72
expression normalized binding [34]: 0.51
expression normalized binding [35]: 2.28
